Test results: patent US20120252054A1, “SYSTEM FOR TRANSFORMATION OF THE CHLOROPLAST GENOME OF SCENEDESMUS SP. AND DUNALIELLA SP” (priority 2009, published 2012)

Experiment: Endoxylanase enzyme function assay on clarified lysates
Format: biochemical, T. reesei
Conditions: clarified lysates of S. dimorphus transformants (parent 2 and 4), normalized for total soluble protein, pH 4.8, 42 degrees Celsius
Procedure: To determine if the endoxylanase produced by transformed algae cells was functional, endoxylanase activity was tested using an enzyme function assay. Briefly, algae cells were collected from TAP agar medium and suspended in BugBuster solution (Novagen). Cells were lysed by bead beating using zirconium beads. Cell lysates were clarified by centrifugation and the supernatants were normalized for total soluble protein (Coomassie Plus Protein Assay Kit, Thermo Scientific). 100 μL of each sample was mixed with 10 μL of 10× xylanase assay buffer (1M sodium acetate, pH=4.8) and 50 μL of the sample mixture was added to one well in a black 96-well plate. EnzCheck Ultra Xylanase substrate (Invitrogen) was dissolved at a concentration of 50 ug/ml in 100 mM sodium acetate pH 4.8, and 50 μL of substrate was added to each well of the microplate. The fluorescent signal was measured in a SpectraMax M2 microplate reader (Molecular Devices), with an excitation wavelength of 360 nm and an emission wavelength of 460 nm, without a cutoff filter and with the plate chamber set to 42 degrees Celsius. The fluorescence signal was measured for 15 minutes, and the enzyme velocity was calculated with Softmax Pro v5.2 (Molecular Devices). Enzyme velocities were recorded as RFU/minute. Enzyme specific activities were calculated as milliRFU per minute per μg of total soluble protein.

B1: endoxylanse: endoxylanase from T. reesei (BD11) expressed in the S. dimorphus chloroplast (protein)
chain: MVPVSFTSLLAASPPSRASCRPAAEVESVAVEKRQTIQPGTGYNNGYFYSYWNDGHGGVTYTNGPGGQFSVNWSNSGNFVGGKGWQPGTKNKVINFSGSYNPNGNSYLSVYGWSRNPLIEYYIVENFGTYNPSTGATKLGEVTSDGSVYDIYRTQRVNQPSIIGTATFYQYWSVRRNHRSSGSVNTANHFNAWAQQGLTLGTMDYQIVAVEGYFSSGSASITVSGTGDYKDDDDKSGENLYFQGHNHRHKHTG
modifications: codon optimized endoxylanase from T. reesei
notes: endoxylanase from T. reesei (BD11) expressed in the S. dimorphus chloroplast
- endoxylanase activity in transformants relative to wild type cells: at least 4 fold
